We go through 17 substances from article PMC11255897.

The assay addresses Ras binding domain (RBD) of the yeast Ras effector Byr2 fused to GST. The assay is described as follows: pull-down with GST-Byr2(RBD), Flag immunoblot densitometry. The following applies: read off a plot; for percent of parent (% of RasC(WT)-CA binding) / percent of parent (% of wild-type RasC peak (10 s cAMP)): parent: est. 100; for percent of parent (% of wild-type RasC peak (10 s cAMP)): 10 s cAMP stimulation; for response (% of wild-type RasC peak (10 s cAMP)): basal (before cAMP stimulation), parent: est. 20. On the technique in general: A western blot detects proteins with antibodies after separation by electrophoresis.

“constitutively active (CA) RasC-Q62L mutant, Flag-tagged (from UniProt P32253) A31D”: the percent of parent (% of RasC(WT)-CA binding) stood at 240.

As to “constitutively active (CA) RasC-Q62L mutant, Flag-tagged (from UniProt P32253) A31K”, the percent of parent (% of RasC(WT)-CA binding) turned out to be 290.

Consider “constitutively active (CA) RasC-Q62L mutant, Flag-tagged (from UniProt P32253) A31L”, for which the percent of parent (% of RasC(WT)-CA binding) worked out at 200.

As to “constitutively active (CA) RasC-Q62L mutant, Flag-tagged (from UniProt P32253) K138A; R164A; K167A”, the percent of parent (% of RasC(WT)-CA binding) was found to be 180.

As for “constitutively active (CA) RasC-Q62L mutant, Flag-tagged (from UniProt P32253) K182A; K183A; R184A”, the percent of parent (% of RasC(WT)-CA binding) stood at 210.

For the substance “constitutively active (CA) RasC-Q62L mutant, Flag-tagged (from UniProt P32253) Y41A”, the percent of parent (% of RasC(WT)-CA binding) turned out to be 12.

As for “wild-type Flag-RasC (from UniProt P32253) A31D”, the percent of parent (% of wild-type RasC peak (10 s cAMP)) worked out at 42 and the response (% of wild-type RasC peak (10 s cAMP)) worked out at 27.

With “wild-type Flag-RasC (from UniProt P32253) A31K”, the percent of parent (% of wild-type RasC peak (10 s cAMP)) amounted to 130 and the response (% of wild-type RasC peak (10 s cAMP)) was 28.

Regarding “wild-type Flag-RasC (from UniProt P32253) A31L”, the percent of parent (% of wild-type RasC peak (10 s cAMP)) was found to be 170 and the response (% of wild-type RasC peak (10 s cAMP)) worked out at 35.

As for “wild-type Flag-RasC (from UniProt P32253) C186A”, the percent of parent (% of wild-type RasC peak (10 s cAMP)) is 2 and the response (% of wild-type RasC peak (10 s cAMP)) is 2.

For “wild-type Flag-RasC (from UniProt P32253) E38A”, the percent of parent (% of wild-type RasC peak (10 s cAMP)) turned out to be 10 and the response (% of wild-type RasC peak (10 s cAMP)) was determined as 5.

“wild-type Flag-RasC (from UniProt P32253) E38A; N39A; S40A”: the percent of parent (% of wild-type RasC peak (10 s cAMP)) was 18 and the response (% of wild-type RasC peak (10 s cAMP)) stood at 19.

On to “wild-type Flag-RasC (from UniProt P32253) K138A; R164A; K167A”, for which the percent of parent (% of wild-type RasC peak (10 s cAMP)) is 100.

As to “wild-type Flag-RasC (from UniProt P32253) K182A; K183A; R184A”, the percent of parent (% of wild-type RasC peak (10 s cAMP)) amounted to 17 and the response (% of wild-type RasC peak (10 s cAMP)) came to 8.

“wild-type Flag-RasC (from UniProt P32253) Q62L”: the response (% of RasC(WT)-CA binding) (parent: est. 15) came to 100.

In the case of “wild-type Flag-RasC (from UniProt P32253) T36A”, the percent of parent (% of wild-type RasC peak (10 s cAMP)) amounted to 8 and the response (% of wild-type RasC peak (10 s cAMP)) is 11.

“wild-type Flag-RasC (from UniProt P32253) Y41A”: the percent of parent (% of wild-type RasC peak (10 s cAMP)) came to 23.
